In the Human Domainome abundance scans (Beltran et al. 2025):
± gives the uncertainty stated by the source.

B1: Tripartite motif-containing protein 44, residues 174 to 218; numbered along this chain, Q96DX7 (parent)
chain: VAKRKCPDHGLDLSTYCQEDRQLICVLCPVIGAHQGHQLSTLDEA

Variants of: B1
Assay: abundance fitness (aPCA) (normalised: wild type 0, dead -1); higher = more abundant; growth selection in yeast, the domain comes from the species named
Settings: Homo sapiens
VAKRKCPDHGLDLSTYCQEDRQLICVLCPVIGAIQGHQLSTLDEA [H34I] showed an abundance fitness of -0.717 ± 0.067.
Work on VAKRKCPDHGLDLSTYCQEDRQLICVLCPVIGAKQGHQLSTLDEA [H34K] yielded an abundance fitness of -0.634 ± 0.057.
VAKRKCPDHGLDLSTYCQEDRQLICVLCPVIGAFQGHQLSTLDEA [H34F] showed an abundance fitness of -0.776 ± 0.063.
Variant VAKRKCPDHGLDLSTYCQEDRQLICVLCPVIGADQGHQLSTLDEA [H34D] has an abundance fitness of -0.575 ± 0.045.
VAKRKCPDHGLDLSTYCQEDRQLICVLCPVIGAQQGHQLSTLDEA [H34Q] showed an abundance fitness of -0.605 ± 0.043.
In the case of VAKRKCPDHGLDLSTYCQEDRQLICVLCPVIGAAQGHQLSTLDEA [H34A], the abundance fitness is reported as -0.673 ± 0.035.
VAKRKCPDHGLDLSTYCQEDRQLICVLCPVIGATQGHQLSTLDEA [H34T] showed an abundance fitness of -0.665 ± 0.042.
VAKRKCPDHGLDLSTYCQEDRQLICVLCPVIGAWQGHQLSTLDEA [H34W] showed an abundance fitness of -0.895 ± 0.046.
For VAKRKCPDHGLDLSTYCQEDRQLICVLCPVIGASQGHQLSTLDEA [H34S], the abundance fitness was -0.689 ± 0.039.
With VAKRKCPDHGLDLSTYCQEDRQLICVLCPVIGAPQGHQLSTLDEA [H34P] the abundance fitness was -0.701 ± 0.046.
In the case of VAKRKCPDHGLDLSTYCQEDRQLICVLCPVIGAYQGHQLSTLDEA [H34Y], the abundance fitness is reported as -0.665 ± 0.067.
VAKRKCPDHGLDLSTYCQEDRQLICVLCPVIGAEQGHQLSTLDEA [H34E] showed an abundance fitness of -0.647 ± 0.075.
VAKRKCPDHGLDLSTYCQEDRQLICVLCPVIGAGQGHQLSTLDEA [H34G] gave an abundance fitness of -0.65 ± 0.029.
For VAKRKCPDHGLDLSTYCQEDRQLICVLCPVIGACQGHQLSTLDEA [H34C], the abundance fitness was -0.107 ± 0.035.
VAKRKCPDHGLDLSTYCQEDRQLICVLCPVIGALQGHQLSTLDEA [H34L] showed an abundance fitness of -0.925 ± 0.051.
Work on VAKRKCPDHGLDLSTYCQEDRQLICVLCPVIGARQGHQLSTLDEA [H34R] yielded an abundance fitness of -0.653 ± 0.03.
Work on VAKRKCPDHGLDLSTYCQEDRQLICVLCPVIGAVQGHQLSTLDEA [H34V] yielded an abundance fitness of -0.802 ± 0.037.
For VAKRKCPDHGLDLSTYCQEDRQLICVLCPVIRAHQGHQLSTLDEA [G32R], the abundance fitness was -0.492 ± 0.029.
VAKRKCPDHGLDLSTYCQEDRQLICVLCPVIEAHQGHQLSTLDEA [G32E] showed an abundance fitness of -0.355 ± 0.03.
Variant VAKRKCPDHGLDLSTYCQEDRQLICVLCPVICAHQGHQLSTLDEA [G32C] has an abundance fitness of -0.575 ± 0.042.
With VAKRKCPDHGLDLSTYCQEDRQLICVLCPVISAHQGHQLSTLDEA [G32S] the abundance fitness was -0.393 ± 0.036.
Variant VAKRKCPDHGLDLSTYCQEDRQLICVLCPVIFAHQGHQLSTLDEA [G32F] has an abundance fitness of -0.871 ± 0.14.
In the case of VAKRKCPDHGLDLSTYCQEDRQLICVLCPVIAAHQGHQLSTLDEA [G32A], the abundance fitness is reported as -0.425 ± 0.028.
Variant VAKRKCPDHGLDLSTYCQEDRQLICVLCPVINAHQGHQLSTLDEA [G32N] has an abundance fitness of -0.465 ± 0.055.
In the case of VAKRKCPDHGLDLSTYCQEDRQLICVLCPVIMAHQGHQLSTLDEA [G32M], the abundance fitness is reported as -0.663 ± 0.053.
VAKRKCPDHGLDLSTYCQEDRQLICVLCPVIWAHQGHQLSTLDEA [G32W] showed an abundance fitness of -0.778 ± 0.038.
VAKRKCPDHGLDLSTYCQEDRQLICVLCPVIPAHQGHQLSTLDEA [G32P] gave an abundance fitness of -0.22 ± 0.037.
Variant VAKRKCPDHGLDLSTYCQEDRQLICVLCPVIVAHQGHQLSTLDEA [G32V] has an abundance fitness of -0.674 ± 0.033.
VAKRKCPDHGLDLSTYCQEDRQLICVLCPVIDAHQGHQLSTLDEA [G32D] showed an abundance fitness of -0.417 ± 0.035.
VAKRKCPDHGLDLSTYCQEDRQLICVLCPVIIAHQGHQLSTLDEA [G32I] showed an abundance fitness of -0.757 ± 0.1.
VAKRKCPDHGLDLSTYCQEDRQLICVLCPVIHAHQGHQLSTLDEA [G32H] showed an abundance fitness of -0.49 ± 0.046.
VAKRKCPDHGLDLSTYCQEDRQLICVLCPVILAHQGHQLSTLDEA [G32L] showed an abundance fitness of -0.775 ± 0.042.
With VAKRKCPDHGLDLSTYCQEDRQLICVLCPVIKAHQGHQLSTLDEA [G32K] the abundance fitness was -0.261 ± 0.043.
Variant VAKRKCPDHGLDLSTYCQEDRQLICVLCPVIYAHQGHQLSTLDEA [G32Y] has an abundance fitness of -0.743 ± 0.1.
Variant VAKRKCPDHGLDLSTYCQEDRQLICVLCPVIQAHQGHQLSTLDEA [G32Q] has an abundance fitness of -0.491 ± 0.046.
For VAKRKCPDHGLDLSTYCQEDRQLICVLCPVIGAHQGLQLSTLDEA [H37L], the abundance fitness was -0.839 ± 0.039.
VAKRKCPDHGLDLSTYCQEDRQLICVLCPVIGAHQGFQLSTLDEA [H37F] gave an abundance fitness of -0.931 ± 0.085.
VAKRKCPDHGLDLSTYCQEDRQLICVLCPVIGAHQGNQLSTLDEA [H37N] showed an abundance fitness of -0.584 ± 0.063.
Work on VAKRKCPDHGLDLSTYCQEDRQLICVLCPVIGAHQGQQLSTLDEA [H37Q] yielded an abundance fitness of -0.599 ± 0.043.
For VAKRKCPDHGLDLSTYCQEDRQLICVLCPVIGAHQGPQLSTLDEA [H37P], the abundance fitness was -0.588 ± 0.04.
VAKRKCPDHGLDLSTYCQEDRQLICVLCPVIGAHQGKQLSTLDEA [H37K] gave an abundance fitness of -0.606 ± 0.042.
VAKRKCPDHGLDLSTYCQEDRQLICVLCPVIGAHQGEQLSTLDEA [H37E] showed an abundance fitness of -0.565 ± 0.033.
Variant VAKRKCPDHGLDLSTYCQEDRQLICVLCPVIGAHQGMQLSTLDEA [H37M] has an abundance fitness of -0.676 ± 0.038.
With VAKRKCPDHGLDLSTYCQEDRQLICVLCPVIGAHQGSQLSTLDEA [H37S] the abundance fitness was -0.678 ± 0.038.
In the case of VAKRKCPDHGLDLSTYCQEDRQLICVLCPVIGAHQGCQLSTLDEA [H37C], the abundance fitness is reported as -0.055 ± 0.033.
Work on VAKRKCPDHGLDLSTYCQEDRQLICVLCPVIGAHQGYQLSTLDEA [H37Y] yielded an abundance fitness of -0.849 ± 0.071.
Work on VAKRKCPDHGLDLSTYCQEDRQLICVLCPVIGAHQGRQLSTLDEA [H37R] yielded an abundance fitness of -0.677 ± 0.03.
In the case of VAKRKCPDHGLDLSTYCQEDRQLICVLCPVIGAHQGIQLSTLDEA [H37I], the abundance fitness is reported as -1.01 ± 0.12.
With VAKRKCPDHGLDLSTYCQEDRQLICVLCPVIGAHQGDQLSTLDEA [H37D] the abundance fitness was -0.589 ± 0.042.
In the case of VAKRKCPDHGLDLSTYCQEDRQLICVLCPVIGAHQGAQLSTLDEA [H37A], the abundance fitness is reported as -0.679 ± 0.032.
Work on VAKRKCPDHGLDLSTYCQEDRQLICVLCPVIGAHQGWQLSTLDEA [H37W] yielded an abundance fitness of -0.95 ± 0.055.
VAKRKCPDHGLDLSTYCQEDRQLICVLCPVIGAHVGHQLSTLDEA [Q35V] gave an abundance fitness of -0.035 ± 0.027.
With VAKRKCPDHGLDLSTYCQEDRQLICVLCPVIGAHHGHQLSTLDEA [Q35H] the abundance fitness was 0.008 ± 0.036.
VAKRKCPDHGLDLSTYCQEDRQLICVLCPVIGAHEGHQLSTLDEA [Q35E] gave an abundance fitness of -0.021 ± 0.028.
VAKRKCPDHGLDLSTYCQEDRQLICVLCPVIGAHFGHQLSTLDEA [Q35F] gave an abundance fitness of -0.162 ± 0.048.
VAKRKCPDHGLDLSTYCQEDRQLICVLCPVIGAHTGHQLSTLDEA [Q35T] showed an abundance fitness of -0.037 ± 0.029.
Variant VAKRKCPDHGLDLSTYCQEDRQLICVLCPVIGAHYGHQLSTLDEA [Q35Y] has an abundance fitness of -0.067 ± 0.044.
